Source: paper PMC3893532

Experiment: confocal immunofluorescence, transfected hippocampal neurons
Settings: glycan lost; control: wild-type seipin

B1: seipin: N88S (protein)
parent chain: MVNDPPVPALLWAQEVGQVLAGRARRLLLQFGVLFCTILLLLWVSVFLYGSFYYSYMPTVSHLSPVHFYYRTDCDSSTTSLCSFPVANVSLTKGGRDRVLMYGQPYRVTLELELPESPVNQDLGMFLVTISCYTRGGRIISTSSRSVMLHYRSDLLQMLDTLVFSSLLLFGFAEQKQLLEVELYADYRENSYVPTTGAIIEIHSKRIQLYGAYLRIHAHFTGLRYLLYNFPMTCAFIGVASNFTFLSVIVLFSYMQWVWGGIWPRHRFSLQVNIRKRDNSRKEVQRRISAHQPGPEGQEESTPQSDVTEDGESPEDPSGTEGQLSEEEKPDQQPLSGEEELEPEASDGSGSWEDAALLTEANLPAPAPASASAPVLETLGSSEPAGGALRQRPTCSSS
- localisation_or_trafficking: changes

B2: seipin: S90L (protein)
parent chain: MVNDPPVPALLWAQEVGQVLAGRARRLLLQFGVLFCTILLLLWVSVFLYGSFYYSYMPTVSHLSPVHFYYRTDCDSSTTSLCSFPVANVSLTKGGRDRVLMYGQPYRVTLELELPESPVNQDLGMFLVTISCYTRGGRIISTSSRSVMLHYRSDLLQMLDTLVFSSLLLFGFAEQKQLLEVELYADYRENSYVPTTGAIIEIHSKRIQLYGAYLRIHAHFTGLRYLLYNFPMTCAFIGVASNFTFLSVIVLFSYMQWVWGGIWPRHRFSLQVNIRKRDNSRKEVQRRISAHQPGPEGQEESTPQSDVTEDGESPEDPSGTEGQLSEEEKPDQQPLSGEEELEPEASDGSGSWEDAALLTEANLPAPAPASASAPVLETLGSSEPAGGALRQRPTCSSS
- localisation_or_trafficking: changes
